One experiment addresses SNAP25 (human) (UniProt P60880). The experiment can be described thus: AlphaScreen or HTRF. On the technique in general: In Alpha technology, singlet oxygen from a donor bead excites a nearby acceptor bead.
The target of a further experiment is full-length SNAP23 (UniProt O00161). Put plainly: AlphaScreen or HTRF.
A further experiment addresses full-length Stx2 (human) (UniProt P32856). The experiment can be described thus: AlphaScreen or HTRF.
A further experiment has as its target full-length Stx4 (UniProt Q12846). The experiment can be described thus: AlphaScreen or HTRF.
In experiment [1] the target is Stx3 145-161 peptides (human) (UniProt Q13277). The experiment can be described thus: peptide or protein array.

Chain of UniProt P32856 (P32856 whole entry): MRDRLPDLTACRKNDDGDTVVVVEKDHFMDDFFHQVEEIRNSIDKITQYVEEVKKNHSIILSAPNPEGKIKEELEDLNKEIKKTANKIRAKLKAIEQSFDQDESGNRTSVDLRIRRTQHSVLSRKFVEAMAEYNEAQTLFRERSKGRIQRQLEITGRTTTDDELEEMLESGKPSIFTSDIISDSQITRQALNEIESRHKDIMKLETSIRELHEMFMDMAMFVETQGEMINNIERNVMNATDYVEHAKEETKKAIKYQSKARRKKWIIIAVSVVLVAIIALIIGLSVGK
Chain of UniProt P60880 (P60880 whole entry): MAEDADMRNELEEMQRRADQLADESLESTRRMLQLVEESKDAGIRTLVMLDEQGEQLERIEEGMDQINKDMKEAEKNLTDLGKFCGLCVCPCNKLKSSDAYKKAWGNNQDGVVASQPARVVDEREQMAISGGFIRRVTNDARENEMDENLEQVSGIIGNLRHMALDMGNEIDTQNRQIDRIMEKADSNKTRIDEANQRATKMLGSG
Chain of UniProt Q12846 (Q12846 whole entry): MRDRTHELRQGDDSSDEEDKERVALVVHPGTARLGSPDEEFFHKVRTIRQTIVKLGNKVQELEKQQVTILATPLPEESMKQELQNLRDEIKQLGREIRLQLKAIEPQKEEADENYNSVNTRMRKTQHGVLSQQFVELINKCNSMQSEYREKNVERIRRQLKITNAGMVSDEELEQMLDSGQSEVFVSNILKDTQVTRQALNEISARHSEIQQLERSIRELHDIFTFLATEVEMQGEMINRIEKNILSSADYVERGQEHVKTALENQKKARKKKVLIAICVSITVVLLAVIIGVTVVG
Chain of UniProt O00161 (O00161 whole entry): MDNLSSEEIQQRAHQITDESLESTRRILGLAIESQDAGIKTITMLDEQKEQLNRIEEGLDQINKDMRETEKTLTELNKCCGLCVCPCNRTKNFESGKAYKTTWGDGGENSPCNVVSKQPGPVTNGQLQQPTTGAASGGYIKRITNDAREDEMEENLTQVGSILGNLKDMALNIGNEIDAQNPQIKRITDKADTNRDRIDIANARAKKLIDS

One may read the EC50 as the concentration at which the effect is half-maximal. The low end stands for higher potency in that assay, the high end for lower potency in that assay. In the case of “His-tagged recombinant Gβ1γ2 (from UniProt P62873;P59768) (complex; other documents disagree on this pair)”, the 50% effective concentration (EC50) in the experiment with SNAP25 (human) stood at 45.2 nM.

In the case of “His-tagged recombinant Gβ1γ2 (from UniProt P62873;P59768) (complex)”, the EC50 in the experiment with full-length SNAP23 turned out to be 78.2 nM; in the experiment with full-length Stx2 (human), 64.8 nM; with full-length Stx4, 92.1 nM. The substance further yielded a fold weaker binding than Stx2 144-160 in experiment [1] of 5 fold.
